Entries after “also recorded” stand apart in the source; their conditions may differ. Like-named read-outs stand apart in the source and are kept apart here.

The test system of assay [1] is Micrococcus lysodeiktikus ATCC No. 4698 cells. The experiment in a line: Binding of LED to M. lysodeiktikus suspension (SDS gel of supernatant). Conditions: for Binding of LED protein to M. lysodiektikus cells (in words): 25 mM Na-Acetate, pH 4.5, 25 mM NaCl.
The nature of assay [2]: Binding of LED to Avicel suspension (SDS gel of supernatant). Conditions: for Binding of LED protein to crystalline cellulose (in words): 25 mM Na-Acetate, pH 4.5, 25 mM NaCl.
In assay [3] the test system is Micrococcus lysodeikticus ATTC No. 4698. The experiment in a line: Lysozyme activity turbidity assay (optical density drop at 540 nm). As to conditions: for Lysozyme activity against Micrococcus lysodeikticus (in words): OD drop assay.
For assay [4], the system named is Clostridium perfringens DSM756. It is filed as cell-based. As to conditions: for Diameter of clearing zone (mm): lysozymes 100 μg/ml, Bacitracin zinc salt 50 μg/ml; for Antimicrobial activity against Clostridium perfringens (in words): RDA.
Assay [5] deals with Exiguobacterium undea (DSM14481). The experiment in a line: Lysozyme activity turbidity assay (optical density drop at 540 nm). The class given is biochemical, Exiguobacterium undae. Conditions: for Lysozyme activity against Exiguobacterium undea (in words): OD drop assay.
Setting [6] is: tested conditions (1/10 MHB pH 7 and 1/2 MHB pH 6).

B1: SEQ ID NO: 273: mature LED (lysozyme enhancing domain) from Trichophaea saccata (protein)
chain: YPVKTDLHCRSSPSTSASIVRTYSSGTEVQIQCQTTGTSVQGSNVWDKTQHGCYVADYYVKTGHSGIFTTKCG
modifications: mat_peptide (1)..(73)
notes: mature LED (lysozyme enhancing domain) from Trichophaea saccata
Turning to B1, the “Binding of LED protein to M. lysodiektikus cells (in words)” value in assay [1] is reported as “binds”; in assay [1] (listed as LED protein), “able to bind”. The “Result: LED band intensity on an SDS gel (supernatant after incubation)” value in assay [1] (Suspension: M. lysodeiktikus, 30 minutes room temperature) is recorded as “+”; in assay [2] (Suspension: Avicel, 30 minutes room temperature) it was “+++”. Also, in assay [1] (Suspension: None (untreated LED sample, reference for both suspensions)), the “Result: LED band intensity on an SDS gel” value is recorded as “+++”. Further, the “Binding of LED protein to crystalline cellulose (in words)” value in assay [2] was “did not bind”; in assay [2] (listed as LED protein), “could not bind”.

B2: SEQ ID NO: 280: mature GH24 lysozyme from Acremonium alcalophilum, mature sequence of SEQ ID NO: 6 of WO 2013/076259; no LED (protein, listed as Acremonium alcalophilum)
chain: QCVGPAINSAALNLIKEFEGWRPNIYRDPVGLPTVGYGHLCRDSSCSDVPYPIPLSVANGERLLRSDLATASSVVLNANQYGALVSWAFNVGCGATSTSTLIRRLNAGESPNTVAAQELPRWNKAGGQVLPGLVRRRAAEVELHRTSTSVRALPACS
modifications: mat_peptide (1)..(157)
notes: no LED
For the molecule B2, the “Lysozyme activity against Micrococcus lysodeikticus (in words)” value in assay [3] is “small amount of activity”. Besides, the “Lysozyme Activity against Micrococcus lysodeikticus as measured by Optical Density Drop” value in assay [3] (assay pH 4.5) is “+”. Also, the “Diameter of clearing zone (mm)” value in assay [4] (Experiment 1, 1/2 MHB pH 6) is on record as 0 mm; in assay [4] (Experiment 1, 1/10 MHB pH 7), 0 mm; in assay [4] (Experiment 2, 1/10 MHB pH 7), 0 mm. The “Antimicrobial activity against Clostridium perfringens (in words)” value (“Antimicrobial activity” for short) in assay [4] (setting [6]) was “do not have any activity; also recorded: did not inhibit growth”. The “Lysozyme Activity against Exiguobacterium undae as measured by Optical Density Drop” value in assay [5] (assay pH 3-7) is given as “−”.

B3: SEQ ID NO: 303: mature GH24 lysozyme from Geomyces auratus (protein, listed as Geomyces auratus)
chain: AFPITGSTVNCRTGPGTSHGVKTSYKKGHEVTVSCQTGGTSVNGNSIWDKTSDGCYVADYYVKTGSSGYVKPKCGSSSGGGGGSSCGAPKSNAATVNLIAEFEGFVSHVYTDATGHPTVGYGHLCSNSKCSGIGYSIPISKANAKKLLAKDMAIAEKCITAMINKSRTLNLNQYGALVSWAFNEGCGAAKSSTLIKRINNGEKPSTVIPQELPKWVYGGSSVLPGLVRRRNAEIALAKKATSSKALPAHC
modifications: mat_peptide (1)..(250)
notes: mature GH24 lysozyme from Geomyces auratus
Take B3: the “Lysozyme activity against Micrococcus lysodeikticus (in words)” value in assay [3] is recorded as “good activity”. For the same molecule, in assay [3] (assay pH 6 (Table 14)), the “Lysozyme Activity against Micrococcus lysodeikticus as measured by Optical Density Drop” value was “+++”. In assay [5], the “Lysozyme activity against Exiguobacterium undea (in words)” value is “good activity”. Further, in assay [5] (assay pH 6 (Table 14)), the “Lysozyme Activity against Exiguobacterium undae as measured by Optical Density Drop” value is “++++”.

B4: SEQ ID NO: 264: mature GH24 lysozyme from Chaetomium thermophilum, comprising LED (protein, listed as Chaetomium thermophilum)
chain: PASAYAITGDNVNCRSGPGTSYAVKKVYKKGTDVKISCQTTGTNINGNNLWDKTSDGCYVSDYYVKTGSNGYVTSKCSSSGGSTCAAPKSNQATVDLIAEFEGFRANIYTDAAGYATVGYGHKCQKAKCAEVKYKIPLSKADGKKLLADDMRSFEVCITNMLNSKAKLNYNQFGALVSWSFNVGCGAAKSSTLIKRLNNGENVNKVLSEELPKWNKAGGKVLQGLVRRRAAEVALAKKSGSSQALPVKC
modifications: mat_peptide (1)..(249)
notes: mature GH24 lysozyme from Chaetomium thermophilum, comprising LED
As for B4, the “Lysozyme activity against Micrococcus lysodeikticus (in words)” value in assay [3] was “good activity”. In addition, the “Lysozyme Activity against Micrococcus lysodeikticus as measured by Optical Density Drop” value in assay [3] (assay pH 5) is “++++”. Also, the “Diameter of clearing zone (mm)” value is on record as 10 mm in assay [4] (Experiment 1, 1/2 MHB pH 6); 9 mm in assay [4] (Experiment 1, 1/10 MHB pH 7); 7 mm in assay [4] (Experiment 2, 1/10 MHB pH 7). In addition, the “Antimicrobial activity” value is “significant activity” in assay [4] (50% MHB, pH 6) and “showed antimicrobial activity” in assay [4] (setting [6]). Moreover, in assay [5], the “Lysozyme activity against Exiguobacterium undea (in words)” value is “good activity”. For the same molecule, in assay [5] (assay pH 6), the “Lysozyme Activity against Exiguobacterium undae as measured by Optical Density Drop” value is given as “++++”.

B5: SEQ ID NO: 306: mature GH24 lysozyme from Ilyonectria rufa (protein, listed as Ilyonectria rufa)
chain: YKITGDNVNCRSGPGTSYSVKRSFKKGTDVTLSCQTTGENVLGTSIWDKTSYGCYVSDYYVKTGSSGFVVKKCGTCGAPKSNAATVNLISDFEGFRANIYKDAAGYPTVGYGHLCSNSRCTDVPYSIPLSKANGKNLLATDMTKFEKCITAMVSSSVTLNKNQYGALVSWAFNMGCGATKTSTLIKRLNQGQNVNTVLSTELPKWVYAGGKKLNGLVRRRNAEIALAKKKTTEKALPNKC
modifications: mat_peptide (1)..(240)
notes: mature GH24 lysozyme from Ilyonectria rufa
On to B5, for which the “Lysozyme activity against Micrococcus lysodeikticus (in words)” value in assay [3] is on record as “good activity”. Further, the “Lysozyme Activity against Micrococcus lysodeikticus as measured by Optical Density Drop” value in assay [3] (assay pH 6 (Table 14)) is “++”. Also, the “Lysozyme activity against Exiguobacterium undea (in words)” value in assay [5] is reported as “good activity”. In assay [5] (assay pH 6 (Table 14)), the “Lysozyme Activity against Exiguobacterium undae as measured by Optical Density Drop” value was “++++”.

B6: SEQ ID NO: 267: mature GH24 lysozyme from Trichoderma harzianum, comprising LED (protein, listed as Trichoderma harzianum)
chain: YPITGDVVNCRTGPGTSYAIKKSYKKNQDISISCQTAGTSVNGNSIWDKTADGCYVADYYVKTGSSGYVTKKCTASSGGGSSSSYCKTINSAGVDLIAKWEGFVASPKPDPIGLPTVGYGHLCQQKNCREVKYKFPLTKTTAKELLLDDLPKYTKCLADYLNDKPKLNANQWAALTSWVFNVGCGNAKTSTLVKRLNNGEAANTVAAEELPKWRMAGGKVLPGLEARRKDEVKLFKTASSKQAYPKCQ
modifications: mat_peptide (1)..(248)
notes: mature GH24 lysozyme from Trichoderma harzianum, comprising LED
Turning to B6, the “Lysozyme activity against Micrococcus lysodeikticus (in words)” value in assay [3] is “good activity”. In addition, the “Lysozyme Activity against Micrococcus lysodeikticus as measured by Optical Density Drop” value in assay [3] (assay pH 6 (Table 14)) is “+++”. For the same molecule, the “Diameter of clearing zone (mm)” value was 12 mm in assay [4] (Experiment 1, 1/2 MHB pH 6); 10 mm in assay [4] (Experiment 1, 1/10 MHB pH 7); 8 mm in assay [4] (Experiment 2, 1/10 MHB pH 7). Besides, the “Antimicrobial activity” value in assay [4] (50% MHB, pH 6) is recorded as “significant activity”; in assay [4] (setting [6]) it was “showed antimicrobial activity”. The “Lysozyme activity against Exiguobacterium undea (in words)” value in assay [5] is on record as “good activity”. Besides, the “Lysozyme Activity against Exiguobacterium undae as measured by Optical Density Drop” value in assay [5] (assay pH 6 (Table 14)) is given as “++++”.

B7: SEQ ID NO: 300: mature GH24 lysozyme from Metarhizium sp. XZ2431 (protein, listed as Metarhizium sp.)
chain: YPVSADSLNCRAEPNTSSAIKTTYKKGEDVKISCQTEGPSINGNTIWDKTQDGCYVADYYVKTGSSGYVTGKCGGSSPPSGSGFCKTVNKAGLDLITKWEGFVSSPRGDPIGLPTVGYGHLCQKKGCAEVKYKFPLTKATALQLLNDDLPKYTGCLGKLLNSKVKLNDNQWAALTSWVFNVGCGNAQSSSLVRRLNNGENPNTVAPSELPKWKMAGGKVLEGLVKRRADEVRLFKVSSSKGAFPKCQ
modifications: mat_peptide (1)..(247)
notes: mature GH24 lysozyme from Metarhizium sp; XZ2431
With B7, the “Lysozyme activity against Micrococcus lysodeikticus (in words)” value in assay [3] is on record as “good activity”. For the same molecule, the “Lysozyme Activity against Micrococcus lysodeikticus as measured by Optical Density Drop” value in assay [3] (assay pH 6 (Table 14)) is “+++”. Further, the “Lysozyme activity against Exiguobacterium undea (in words)” value in assay [5] is “good activity”. Also, the “Lysozyme Activity against Exiguobacterium undae as measured by Optical Density Drop” value in assay [5] (assay pH 6 (Table 14)) is “+++”.

B8: SEQ ID NO: 297: mature GH24 lysozyme from Mortierella sp. ZY002 (protein, listed as Mortierella sp.)
chain: YPITGADALHCRSGPGTSYPIQKTLRPPQDIKIQCQEPGTVVNGVSLWDKTQFGCYVSDYYVKTGTGNYVAPRCNSGGSSSACTGLNDAGINLIKEFEGFVPRPAPDPIGLPTVGYGHLCQTKGCGEVKYSFPLTTATATALLKDDLPKYTSCLAKALNGKPKLNKNQWAALASWTFNVGCGNMKSSSLITRLNAGQNPNTVATEELPKWKLAGGKVLPGLVRRRAAEVKLFKTANSSQGYPKCA
modifications: mat_peptide (1)..(245)
notes: mature GH24 lysozyme from Mortierella sp; ZY002
As for B8, the “Lysozyme activity against Micrococcus lysodeikticus (in words)” value in assay [3] was “good activity”. Moreover, the “Lysozyme Activity against Micrococcus lysodeikticus as measured by Optical Density Drop” value in assay [3] (assay pH 6 (Table 14)) is given as “++++”. Moreover, the “Lysozyme activity against Exiguobacterium undea (in words)” value in assay [5] was “good activity”. For the same molecule, the “Lysozyme Activity against Exiguobacterium undae as measured by Optical Density Drop” value in assay [5] (assay pH 6 (Table 14)) was “+++”.

For the origin of these results see patent US12324447B2, “Animal feed compositions and uses thereof” (priority 2015, dated 2025).
